Measured values from the DeepSol protein solubility set.

Assay: soluble on expression in E. coli; label from the status in PepcDB or PDB records
With “MLEINKIHQMNCFDFLDQVENKSVQLAVIDPPYNLSKADWDSFDSHNEFLAFTYRWIDKVLDKLDKDGSLYIFNTPFNCAFICQYLVSKGMIFQNWITWDKRDGMGSAKRRFSTGQETILFFSKSKNHTFNYDEVRVPYESTDRIKHASEKGILKNGKRWFPNPNGRLCGEVWHFSSQRHKEKVNGKTVKLTHITPKPRDLIERIIRASSNPNDLVLDCFMGSGTTAIVAKKLGRNFIGCDMNAEYVNQANFVLNQLEIN” the “soluble on expression in E. coli” value was “soluble”. In the case of “MKKVIFKPLKSYPVKMAMIALTLLAASPITHAEESKMKNATITVTATGENQATPDMAIINLAVVTQDKTAQKALADNNKSMNDIINAFKNNGIQANDLQTSGLSIYQSNPNKDHEKKNNGIVYHVSNSLTVRIRDLSNAGKIFDQAMALGVNSVHGITFTNANTKPFYQEARKKAIAEAIEKAKTIAEAADLKLGKIIKINENDDNYYSRPHLMSKAVNANYTDTTFSSGELNYSVSVTIVFAID”, the “soluble on expression in E. coli” value is reported as “not soluble”. For “RPLFAREGGIYAVLVCMQEYKTSVLVQQAGLAALKMLAVASSSEIPTFVTGRDSIHSLFDAQMTREIFASIDSATRPGSESLLLTVPAAVILMLNTEGCSSAARNGLLLLNLLLCNHHTLGDQIITQELRDTLFRHSGIAPRTEPMPTTRTILMMLLNRYSEPPGSPERAALETPIIQGQDGSPELLIRSLVGGPSAELLLDLERVLCREGSPGGAVRPLLKRLQQETQPFLLLLRTLDAPGPNKTLLLSVLRVITRLLDFPEAMVLPWHEVLEPCLNCLSGPSSDSEIVQELTCFLHRLASMHKDYAVVLCCLGAKEILSKVLDKHSAQLLLGCELRDLVTECEKYAQLYSNLTSSILAGCIQMVLGQIEDHRRTHQPINIPFFDVFLRHLCQGSSVEVKEDKCWEKVEVSSNPHRASKLTDHNPKTYWESNGSTGSHYITLHMHRGVLVRQLTLLVASEDSSYMPARVVVFGGDSTSCIGTELNTVNVMPSASRVILLENLNRFWPIIQIRIKRCQQGGIDTRVRGVEVLGPKPTFWPLFREQLCRRTCLFYTIRAQAWSRDIAEDHRRLLQLCPRLNRVLRHEQNFADRFLPDDEAAQALGKTCWEALVSPLVQNITSPDAEGVSALGWLLDQYLEQRETSRNPLSRAASFASRVRRLCHLLVHVEPPPGPSPEPSTRPFSKNSKGRDRSPAPSPVLPSSSLRNITQCWLSVVQEQVSRFLAAAWRAPDFVPRYCKLYEHLQRAGSELFGPRAAFMLALRSGFSGALLQQSFLTAAHMSEQFARYIDQQIQGGLIGGAPGVEMLGQLQRHLEPIMVLSGLELATTFEHFYQHYMADRLLSFGSSWLEGAVLEQIGLCFPNRLPQLMLQSLSTSEELQRQFHLFQLQRLDKLFLEQEDEEEKRLEEEEEEEEEEEAEKELFIEDPSPAISILVLSPRCWPVSPLCYLYHPRKCLPTEFCDALDRFSSFYSQSQNHPVLDMGPHRRLQWTWLGRAELQFGKQILHVSTVQMWLLLKFNQTEEVSVETLLKDSDLSPELLLQALVPLTSGNGPLTLHEGQDFPHGGVLRLHEPGPQRSGEALWLIPPQAYLNVEKDEGRTLEQKRNLLSCLLVRILKAHGEKGLHIDQLVCLVLEAWQKGPNPPGTLGHTVAGGVACTSTDVLSCILHLLGQGYVKRRDDRPQILMYAAPEPMGPCRGQADVPFCGSQSETSKPSPEAVATLASLSCLQAAP”, the “soluble on expression in E. coli” value was “soluble”. With “GSMDQRQKLQHWIHSCLRKADKNKDNKMNFKELKDFLKELNIQVDDGYARKIFRECDHSQTDSLEDEEIETFYKMLTQRAEIDRAFEEAAGSAETLSVERLVTFLQHQQREEEAGPALALSLIERYEPSETAKAQRQMTKDGFLMYLLSADGNAFSLAHRRVYQDMDQPLSHYLVSSSHNTYLLEDQLTGPSSTEAYIRALCKGCRCLELDCWDGPNQEPIIYHGYTFTSKILFCDVLRAIRDYAFKASPYPVILSLENHCSLEQQRVMARHLRAILGPILLDQPLDGVTTSLPSPEQLKGKILLKGKKLGGLLPAGGENGSEATDVSDEVEAAEMEDEAVRSQVQHKPKEDKLKLVPELSDMIIYCKSVHFGGFSSPGTSGQAFYEMASFSESRALRLLQESGNGFVRHNVSCLSRIYPAGWRTDSSNYSPVEMWNGGCQIVALNFQTPGPEMDVYLGCFQDNGGCGYVLKPAFLRDPNTTFNSRALTQGPWWRPERLRVRIISGQQLPKVNKNKNSIVDPKVIVEIHGVGRDTGSRQTAVITNNGFNPRWDMEFEFEVTVPDLALVRFMVEDYDSSSKNDFIGQSTIPWNSLKQGYRHVHLLSKNGDQHPSATLFVKISIQD” the “soluble on expression in E. coli” value was “soluble”. With “MYKLIDSAKFIMCVRSKRFRPDTLMDIFYLLNIQNMNCKKLFKTLLFIITTLVIVSCSKDDCDLDHIDKLQGLPALKAGTFPEEDLTLNVGEQYVYAPKASSPLDIYYQWYQNGEDMSTAPSFTFNAEHPGRSKVILELSNDLGKVTLENKVMVPGADYSKGCLIINEGWFGHGSGSISFYNYEKNSIEHWCYKNQNFGDVLGVTSQSATLWNGKLYVCSKEDNQLVVMDPKTLYAENSCGKLANYQAYEFIGLNDDYGIITHGGYFSRINLKTFETITLVSVGNTYTGTGSGIAYNGKLILNVNSSGWGSPKVYTIDIAELCSPDLKPTDKVAFQELDIATYGGTRFVQCKDGNIYTVETTKDGKNNLVRINADFSLKKVAMRDDYSPSSFGAYREASFCGTPEGIFYYIAGGKIYKATFDNPAPEETLTEYTKEGYGFYGAGIRVNPKTNELLAMYLTGDYQKNLLVRFNAATGEKISEIAYDGYYFPATFIFN” the “soluble on expression in E. coli” value was “not soluble”. In the case of “MDFYDTDELRDFMALVEKTNDIKKIALFRILAFTGIRKGELLALEWKDYRKSTLDINKAISHSPVGYEILPPKANSNRLLSLDEKTCKILDELHQTYPESTRIFESENGGMLSPSKPRKWLLEITKEKEIEPIRIHAFRHTHASLLFESGMSLKQVQYRLGHADLKTTMNIYTHITKLEHHHHHH”, the “soluble on expression in E. coli” value is reported as “not soluble”. With “MGSDKIHHHHHHMTTLGVVYDKFLSPYFAGGGAVHAYEVTIRLKEHFKIVYYPSSPVLSWDKENVEKKAKELESQGIKVADEFYEILEEKRRIGRLKRFLFADKIAREFSKGFKVDADILYEPDHTSLDIFYLARDTKYGVTFHEPPFYNNSLRYFRRLVKFYGVNPYTGKGFHTRFLYNEYIKYLYKRLFKKVKKPTFLAGVSEAPLLESGLGGEVIKPGNAFNPSLLKFRNRGKEDYVVFWSRLNQDKGFHELPDILRIMEKRGGNKVRLILMGKFFDKYNERRFWSKVRKYDLRVDYKGFVKREELADIVSKAKVLIYPSHVDGFSLVALESLALGTPVVAYDIPAIKSVYGGLECVRIVNEFDKESMAENALKFYKMSEKEIEEIMNGDKLMEFLKLHSNWDNVANSVLKILKKYLI” the “soluble on expression in E. coli” value was “not soluble”. For “MSWLKEVIGTEKAVIAMCHLRALPGDPSFDAQLGMNWVIDKAWDDLMALQNGGVDAVMFSNEFSLPYLTKVRPETTAAMARIIGQLMSDIRIPFGVNVLWDPVASFDLAMATGAKFIREIFTGAYASDFGVWDTNVGETIRHQHRIGAGEVKTLFNIVPEAAVYLGNRDICSIAKSTVFNNHPDALCVSGLTAGTRTDSALLKRVKETVPDTVVLANTGVCLENVEEQLSIADGCVTATTFKKDGVFANFVDQARVSQFMEKVHHIRR”, the “soluble on expression in E. coli” value was “not soluble”. With “MGSDKIHHHHHHMFLVISVVGSSNIDIVLKVDHFTKPGETQKAIEMNVFPGGKGANQAVTVAKIGEKGCRFVTCIGNDDYSDLLIENYEKLGITGYIRVSLPTGRAFIEVDKTGQNRIIIFPGANAELKKELIDWNTLSESDILLLQNEIPFETTLECAKRFNGIVIFDPAPAQGINEEIFQYLDYLTPNEKEIEALSKDFFGEFLTVEKAAEKFLELGVKNVIVKLGDKGVLLVNKNEKKHFPTFKVKAVDTTAAGDVFNGAFAVALSEGKNPEEAVIFGTAAAAISVTRLGAQSSIPAREEVEAFLKNL” the “soluble on expression in E. coli” value was “soluble”. In the case of “GSEFAIDPNEPTYCLCNQVSYGEMIGCDNEQCPIEWFHFSCVSLTYKPKGKWYCPKCRGDNE”, the “soluble on expression in E. coli” value is reported as “soluble”. For “MHFYKYGVLINQLSDSFEWRVAFLDGSVSDHCCITVPSEKFNFPPTPGATVKAKFEHANSFLPSLVAQCGSFEWFRDVTVVNSKVVIFAIVHFSNECLERDPFKINGMDYSIIENENTDFQKIVLPTRVLQTSITSRSNLQNTDTPFIYRIGVCWEPISFENGVTVNWRYYADFPITPIFELYYRETTLPYIAESMVYGVLEGVVIAENDHGALFWTPKMGCAILPSTSLDTPMPSLGSVHVILVKRCIPENSFGFSCSYELLSSFRSTEWPNLKVITDQITRKVYIEANASCRSMMENQDFPSMNVPHIGKVFRGLQQYRDKLSAGHLYDFRMEFQKEEGSFVPTIVDLCLEEDEMVDCRVVYISNETSTYFAVLDPSSNSFDRFKQSIDYIAIPFRVLFCANGVHVKNEELLLNSYKVRVRVPRNRHDVVNAIHVEHVIQSPKDPAYFITNGSVWLRTTVKFQNASRYELLCPLLEQKIIDVNGVTAAMSLTQEFTVHAQFVLMERNVPVFVVRQLASTVREHPRTTNYPSRSLNLSYEVSGALARTNPNGQLSAADNNIVLINDSISLDHNLPDTGEYPTILNESSFERQLLFDNQSIADSASTSGDFILTESVYESSSAASTCTVIDRNDARFSALNDDSNILISESWLDSTNQHSETTMDTPEIITESFYESTHDQASSRASTVDRLASDVDKISIGRPDYSPPPRRRIFGYSTPGDRVRPRNSYGSSSSGSLNGRPKRRAPYGFRQIRNITPHNVLLRDIIYNNINNRKMFVEQNKNAILKCWNRLPLAQVTRTTKLSVTVIAVESIKFPPSFDETCIKGLVRFVALGVGVDINLRNMSIVVPIGGKFNNLPKSFQLGETYRVYHFSSKVDRICRLGGFSFGLKGGMRNEEPPDRNNWFSDPQTVNGRDGQSYLRCTVNAERPANAEIESDFFELWSTTALPGFIIVEKVPQLMKHLNEELLDPDVHSRFTYSCVIEPLAGGPVEASILKDLKYDEEFCIFWRLVVEFSDTVPLPRLIIKSKIYVPPPPVVPVYVTPFTVNDFGCWETHRINSILHQARIDRLRAAGHMRVKMLDGPDMKPEIEIRKVDVNTRREKMFTAFDALLEKLPQLHSEGILEYVLEDDLREKIEYLLPMTDDNHKFQFRARNDSLTIGLNYLTDMLTKGKVYKMLYEKQEYVPLLKVLSDCIGLNTTYIKKTDAVTMMLQFMYRNELHTYM”, the “soluble on expression in E. coli” value was “not soluble”. In the case of “MGSDKIHHHHHHKTRTVFVCQQCGAQQSRWMGKCPECGAWDSLVEQIVTPARGTGGQRAATVGQNQPIRLRDVPLTDFQRLPVYAEEFARVLGGGLVPGSVVLIGGDPGVGKSTLLGQVAAHFAASVGPALYVSAEESAQQIRLRAERLGLTADDLFLLAETSLDLIIEHIRHLRPRLVIVDSIQTVYLPELTSAAGSVSQVREGALRLMQLAKETAIPIVLVGHVTKEGAIAGPRVLEHIVDVVLYLEGDRFHQFRLLRGGKNRFGSTNEVGVFEMTGDGLREVRNPSQVFLAERNTQSPGSTVTVTLEGTRPLLVEVQALTSHTGNAQPRRTTNGFDLNRLLMLTAVLSKRVGLPLFNQDLYVNIVGGLRIGEPAADLAVALAIASSYRNQRIASRSGLPW”, the “soluble on expression in E. coli” value is reported as “not soluble”. For “MRRIDMRSWIQNTKKLLPDLLPVMQTRMQILQYIRLMQPIGRRNLSASLGMTERVLRSEVQVLKEQNLVHVASSGMTLTEEGTALVLALEDFMKEISGLKVLEKQLKETLDLDEVFVVPGDSDESPWVKLEMGRACVTCIKDRLTANNIVAVAGGTTLAAAADMMQLDCKDLHMLFVPARGGIGEGVELEANTICAKMAQNTMSNYRLLYVPDHVSSEAYASIVTEPSVKEVLELIRSSNIVIHGIGDALTMARRRSTSEADWLKIQASEAVGEAFGYYFNEEGNVVHKVRTVGMQLEDLQNVSHVVAVAGGSSKAKAIQAVIKQGHTSILITDEGAAKQLTKGFTL”, the “soluble on expression in E. coli” value was “not soluble”. With “MRYVVGHKNPDTDSIASAIVLAYFLDCYPARLGDINPETEFVLRKFGVMEPELIESAKGKEIILVDHSEKSQSFDDLEEGKLIAIIDHHKVGLTTTEPILYYAKPVGSTATVIAELYFKDAIDLIGGKKKELKPDLAGLLLSAIISDTVLFKSPTTTDLDKEMAKKLAEIAGISNIEEFGMEILKAKSVVGKLKPEEIINMDFKNFDFNGKKVGIGQVEVIDVSEVESKKEDIYKLLEEKLKNEGYDLIVFLITDIMKEGSEALVVGNKEMFEKAFNVKVEGNSVFLEGVMSRKKQVVPPLERAYNG” the “soluble on expression in E. coli” value was “soluble”.
